Experimental data: US20150056222A1

Molecular target: mouse PRLR on HEK293 cells (mouse) (UniProt Q08501)
Assay: FACS, HEK293/mPRLR cells

mouse PRLR on HEK293 cells (mouse), sequence (Q08501 20-608): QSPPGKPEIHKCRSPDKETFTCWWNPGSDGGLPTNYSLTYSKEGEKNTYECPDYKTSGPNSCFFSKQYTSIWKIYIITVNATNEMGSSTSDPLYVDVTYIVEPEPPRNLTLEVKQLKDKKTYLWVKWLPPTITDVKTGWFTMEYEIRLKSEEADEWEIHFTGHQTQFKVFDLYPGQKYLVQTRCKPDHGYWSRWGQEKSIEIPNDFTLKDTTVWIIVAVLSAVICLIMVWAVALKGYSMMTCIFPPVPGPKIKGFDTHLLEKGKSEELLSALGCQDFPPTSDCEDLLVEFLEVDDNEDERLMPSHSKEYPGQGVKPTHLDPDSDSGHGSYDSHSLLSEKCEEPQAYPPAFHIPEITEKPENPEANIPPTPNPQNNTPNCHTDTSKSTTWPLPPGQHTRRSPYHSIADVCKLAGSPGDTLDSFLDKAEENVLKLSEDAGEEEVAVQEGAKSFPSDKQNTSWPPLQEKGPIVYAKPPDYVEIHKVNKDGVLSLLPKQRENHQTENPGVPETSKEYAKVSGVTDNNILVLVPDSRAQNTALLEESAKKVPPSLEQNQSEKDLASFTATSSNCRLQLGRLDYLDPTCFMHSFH

Substance: Isotype Ctrl I (antibody)
- FACS Cell Binding (Fold Above Background) (fold above background): 1
